{
  "source": "paper PMC1356529",
  "key": {"NCp9 (HIV-1) [1]": {"target": "NCp9 (HIV-1) (UniProt P12493)", "test": "Trp fluorescence quenching titration"}, "NCp7 (HIV-1) [2]": {"target": "NCp7 (HIV-1) (UniProt P12493)", "test": "Trp fluorescence quenching titration"}, "NCp15 (HIV-1) [3]": {"system": "NCp15 (HIV-1)", "test": "single-molecule DNA stretching"}, "NCp9 (HIV-1) [4]": {"target": "NCp9 (HIV-1) (UniProt P12493)", "test": "single-molecule DNA stretching"}, "NCp7 (HIV-1) [5]": {"target": "NCp7 (HIV-1) (UniProt P12493)", "test": "single-molecule DNA stretching"}, "NCp15 (HIV-1) [6]": {"system": "NCp15 (HIV-1)", "test": "Trp fluorescence quenching titration"}, "NCp15 (HIV-1) [7]": {"system": "NCp15 (HIV-1)", "test": "ethenoA fluorescence enhancement titration", "conditions": "1,N6-ethenoadenosine homopolymer (RNA)"}, "NCp9 (HIV-1) [8]": {"target": "NCp9 (HIV-1) (UniProt P12493)", "test": "ethenoA fluorescence enhancement titration", "conditions": "1,N6-ethenoadenosine homopolymer (RNA)"}, "NCp7 (HIV-1) [9]": {"target": "NCp7 (HIV-1) (UniProt P12493)", "test": "ethenoA fluorescence enhancement titration", "conditions": "1,N6-ethenoadenosine homopolymer (RNA)"}},
  "data": [
    {"substance": "3'LTR/U5 single strand", "values": [
      {"measurement": "Ka", "setting": "NCp9 (HIV-1) [1]", "result": "6.2e+07", "unit": "M⁻¹"},
      {"measurement": "Ka", "setting": "NCp7 (HIV-1) [2]", "result": "4.3e+07", "unit": "M⁻¹"}
    ]},
    {"substance": "5'LTR/U3 single strand", "values": [
      {"measurement": "Ka", "setting": "NCp9 (HIV-1) [1]", "result": "3.9e+08", "unit": "M⁻¹"},
      {"measurement": "Ka", "setting": "NCp7 (HIV-1) [2]", "result": "2.2e+08", "unit": "M⁻¹"}
    ]},
    {"substance": "lambda-DNA", "values": [
      {"measurement": "Ka", "setting": "NCp15 (HIV-1) [3]", "result": "1.04e+08", "unit": "M⁻¹"},
      {"measurement": "Ka", "setting": "NCp9 (HIV-1) [4]", "result": "1.4e+08", "unit": "M⁻¹"},
      {"measurement": "Ka", "setting": "NCp7 (HIV-1) [5]", "result": "1.22e+08", "unit": "M⁻¹"}
    ]},
    {"substance": "poly(dT)", "values": [
      {"measurement": "Ka", "setting": "NCp15 (HIV-1) [6]", "result": "1.4e+09", "unit": "M⁻¹"},
      {"measurement": "Ka", "setting": "NCp9 (HIV-1) [1]", "result": "1.1e+08", "unit": "M⁻¹"},
      {"measurement": "Ka", "setting": "NCp7 (HIV-1) [2]", "result": "9.3e+07", "unit": "M⁻¹"}
    ]},
    {"substance": "poly(etheno-A)", "values": [
      {"measurement": "Ka", "setting": "NCp15 (HIV-1) [7]", "result": "1.7e+09", "unit": "M⁻¹"},
      {"measurement": "Ka", "setting": "NCp9 (HIV-1) [8]", "result": "3.8e+09", "unit": "M⁻¹"},
      {"measurement": "Ka", "setting": "NCp7 (HIV-1) [9]", "result": "1.4e+09", "unit": "M⁻¹"}
    ]}
  ]
}
